Measurements from patent US20240270857A1 (CHIA TAI TIANQING PHARMACEUTICAL GROUP, published 2024).
Positions count from the first letter of the chain named. Where two headings read alike, the source gives them in different places. Each block holds one binder with its values, some of them ahead of it.

What was measured:
[1] = molecular target: T1, IL-36R naturally expressed on OVCAR8 cells and on normal human epidermal keratinocytes (NHK cells) (human, UniProt Q9HB29 20-575); assay: cell-based or functional assay
T1 sequence (looked up): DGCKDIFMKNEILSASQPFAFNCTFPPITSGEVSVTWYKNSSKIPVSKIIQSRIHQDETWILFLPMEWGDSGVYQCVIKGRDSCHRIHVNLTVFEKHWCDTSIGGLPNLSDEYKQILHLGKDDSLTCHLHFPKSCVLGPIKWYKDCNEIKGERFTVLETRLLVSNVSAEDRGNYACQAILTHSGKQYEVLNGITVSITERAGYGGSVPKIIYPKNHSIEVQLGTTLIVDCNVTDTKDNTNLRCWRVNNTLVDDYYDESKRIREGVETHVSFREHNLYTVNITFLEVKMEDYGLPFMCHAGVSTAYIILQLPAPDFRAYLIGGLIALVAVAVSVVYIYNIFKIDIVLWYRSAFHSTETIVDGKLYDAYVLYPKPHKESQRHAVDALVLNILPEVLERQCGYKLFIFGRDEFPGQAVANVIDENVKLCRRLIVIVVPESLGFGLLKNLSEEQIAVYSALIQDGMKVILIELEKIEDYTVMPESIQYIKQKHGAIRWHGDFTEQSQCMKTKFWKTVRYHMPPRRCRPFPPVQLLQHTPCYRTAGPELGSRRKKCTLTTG

[2] = molecular target: T1, IL-36R naturally expressed on OVCAR8 …; assay: cell-based or functional assay; remark: listed apart in the source

B1: hz72C1-1.1 (antibody, human IgG4 S228P, kappa)
heavy: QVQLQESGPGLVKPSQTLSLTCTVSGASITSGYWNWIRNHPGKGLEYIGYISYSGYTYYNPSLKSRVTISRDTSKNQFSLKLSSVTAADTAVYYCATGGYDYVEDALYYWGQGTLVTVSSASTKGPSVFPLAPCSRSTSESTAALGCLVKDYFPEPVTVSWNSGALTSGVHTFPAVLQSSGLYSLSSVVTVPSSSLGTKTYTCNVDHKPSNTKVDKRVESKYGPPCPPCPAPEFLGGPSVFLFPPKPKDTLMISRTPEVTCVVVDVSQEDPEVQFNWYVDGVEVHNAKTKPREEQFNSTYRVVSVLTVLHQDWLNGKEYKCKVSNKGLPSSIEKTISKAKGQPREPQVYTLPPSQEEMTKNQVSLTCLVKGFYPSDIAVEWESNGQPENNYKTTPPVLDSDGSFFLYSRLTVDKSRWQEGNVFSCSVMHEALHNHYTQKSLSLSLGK
light: DIQMTQSPSSLSASVGDRVTITCRASSNVRYMYWYQQKPGKAPKLWIYLTSNLASGVPSRFSGSGSGTSYTLTISSLQPEDFATYYCQQFTTSPYTFGQGTKLEIKRTVAAPSVFIFPPSDEQLKSGTASVVCLLNNFYPREAKVQWKVDNALQSGNSQESVTEQDSKDSTYSLSSTLTLSKADYEKHKVYACEVTHQGLSSPVTKSFNRGEC
notes: Humanized, human IgG4 / kappa; also called humanized 72C1 antibody 1.1
- IC50 (M); hIL36α; IL-8 production [1]: 3.02e-11 M
- IC50 (M); hIL36αβγ; IL-8 production [1]: 9.17e-11 M
- IC50 (M); hIL36β; IL-8 production [1]: 4.11e-11 M
- IC50 (M); hIL36γ; IL-8 production [1]: 2.59e-11 M
- Maximum inhibition rate %; hIL36α; IL-8 production [1]: 99%
- Maximum inhibition rate %; hIL36αβγ; IL-8 production [1]: 97.5%
- Maximum inhibition rate %; hIL36β; IL-8 production [1]: 98.4%
- Maximum inhibition rate %; hIL36γ; IL-8 production [1]: 98.2%
- IC50 (M); hIL36α; IL-8 production [2]: 2.19e-10 M
- IC50 (M); hIL36αβγ; IL-8 production [2]: 3.72e-10 M
- IC50 (M); hIL36β; IL-8 production [2]: 3.85e-10 M
- IC50 (M); hIL36γ; IL-8 production [2]: 1.21e-10 M
- Maximum inhibition rate %; hIL36α; IL-8 production [2]: 99%
- Maximum inhibition rate %; hIL36αβγ; IL-8 production [2]: 93.7%
- Maximum inhibition rate %; hIL36β; IL-8 production [2]: 86.7%
- Maximum inhibition rate %; hIL36γ; IL-8 production [2]: 102%

B4: hz72C1-2.3 (antibody, human IgG4 S228P, kappa)
heavy: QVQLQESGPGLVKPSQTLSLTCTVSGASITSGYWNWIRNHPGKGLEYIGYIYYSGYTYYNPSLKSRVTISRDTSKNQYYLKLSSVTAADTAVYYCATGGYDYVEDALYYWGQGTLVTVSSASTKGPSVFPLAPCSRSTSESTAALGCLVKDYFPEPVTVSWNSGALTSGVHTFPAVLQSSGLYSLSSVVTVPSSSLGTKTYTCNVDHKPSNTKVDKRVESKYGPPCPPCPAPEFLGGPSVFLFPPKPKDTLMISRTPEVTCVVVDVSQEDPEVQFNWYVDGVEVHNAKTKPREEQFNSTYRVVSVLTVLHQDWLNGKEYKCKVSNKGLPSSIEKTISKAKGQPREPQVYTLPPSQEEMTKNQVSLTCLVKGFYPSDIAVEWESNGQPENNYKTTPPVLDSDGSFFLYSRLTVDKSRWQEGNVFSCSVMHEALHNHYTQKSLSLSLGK
light: B1 light with F90Y
notes: Humanized, human IgG4 / kappa
- IC50 (M); hIL36α; IL-8 production [1]: 2.17e-10 M
- IC50 (M); hIL36αβγ; IL-8 production [1]: 3.58e-10 M
- IC50 (M); hIL36β; IL-8 production [1]: 1.67e-10 M
- IC50 (M); hIL36γ; IL-8 production [1]: 5.31e-11 M
- Maximum inhibition rate %; hIL36α; IL-8 production [1]: 98.1%
- Maximum inhibition rate %; hIL36αβγ; IL-8 production [1]: 95%
- Maximum inhibition rate %; hIL36β; IL-8 production [1]: 97.9%
- Maximum inhibition rate %; hIL36γ; IL-8 production [1]: 97.7%
- IC50 (M); hIL36α; IL-8 production [2]: 1.8e-10 M
- IC50 (M); hIL36αβγ; IL-8 production [2]: 4.5e-09 M
- IC50 (M); hIL36β; IL-8 production [2]: 2.67e-09 M
- IC50 (M); hIL36γ; IL-8 production [2]: 5.6e-10 M
- Maximum inhibition rate %; hIL36α; IL-8 production [2]: 82%
- Maximum inhibition rate %; hIL36αβγ; IL-8 production [2]: 80%
- Maximum inhibition rate %; hIL36β; IL-8 production [2]: 78.3%
- Maximum inhibition rate %; hIL36γ; IL-8 production [2]: 90.8%

Continued, values first:

- IC50 (M); hIL36α; IL-8 production [1]: 1.94e-10 M
- IC50 (M); hIL36αβγ; IL-8 production [1]: 2.3e-10 M
- IC50 (M); hIL36β; IL-8 production [1]: 1.45e-10 M
- IC50 (M); hIL36γ; IL-8 production [1]: 7.6e-11 M
- Maximum inhibition rate %; hIL36α; IL-8 production [1]: 98.5%
- Maximum inhibition rate %; hIL36αβγ; IL-8 production [1]: 97.1%
- Maximum inhibition rate %; hIL36β; IL-8 production [1]: 98%
- Maximum inhibition rate %; hIL36γ; IL-8 production [1]: 97.7%
- IC50 (M); hIL36α; IL-8 production [2]: 2.45e-10 M
- IC50 (M); hIL36αβγ; IL-8 production [2]: 1.49e-09 M
- IC50 (M); hIL36β; IL-8 production [2]: 1.1e-09 M
- IC50 (M); hIL36γ; IL-8 production [2]: 1.18e-09 M
- Maximum inhibition rate %; hIL36α; IL-8 production [2]: 97.3%
- Maximum inhibition rate %; hIL36αβγ; IL-8 production [2]: 85.3%
- Maximum inhibition rate %; hIL36β; IL-8 production [2]: 82.5%
- Maximum inhibition rate %; hIL36γ; IL-8 production [2]: 89%
B2: hz72C1-2.2 (antibody, human IgG4 S228P, kappa)
heavy: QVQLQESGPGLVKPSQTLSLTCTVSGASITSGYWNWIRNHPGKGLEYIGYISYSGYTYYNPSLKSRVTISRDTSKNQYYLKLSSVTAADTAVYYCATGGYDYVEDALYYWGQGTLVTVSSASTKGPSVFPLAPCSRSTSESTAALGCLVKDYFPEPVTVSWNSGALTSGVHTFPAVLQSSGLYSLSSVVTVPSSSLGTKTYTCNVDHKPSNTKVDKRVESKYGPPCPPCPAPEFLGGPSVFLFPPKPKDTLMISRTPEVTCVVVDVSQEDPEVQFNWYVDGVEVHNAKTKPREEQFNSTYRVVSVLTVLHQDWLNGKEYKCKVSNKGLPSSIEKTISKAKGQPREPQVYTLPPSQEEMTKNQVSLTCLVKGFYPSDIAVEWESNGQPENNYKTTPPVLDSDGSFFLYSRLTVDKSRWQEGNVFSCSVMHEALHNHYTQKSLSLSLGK
light: B1 light with F90Y
notes: Humanized, human IgG4 / kappa

- IC50 (M); hIL36α; IL-8 production [1]: 1.43e-10 M
- IC50 (M); hIL36αβγ; IL-8 production [1]: 3.97e-10 M
- IC50 (M); hIL36β; IL-8 production [1]: 9.9e-11 M
- IC50 (M); hIL36γ; IL-8 production [1]: 8.27e-11 M
- Maximum inhibition rate %; hIL36α; IL-8 production [1]: 98.6%
- Maximum inhibition rate %; hIL36αβγ; IL-8 production [1]: 96.4%
- Maximum inhibition rate %; hIL36β; IL-8 production [1]: 98.3%
- Maximum inhibition rate %; hIL36γ; IL-8 production [1]: 97.8%
- IC50 (M); hIL36α; IL-8 production [2]: 1.13e-09 M
- IC50 (M); hIL36αβγ; IL-8 production [2]: 1.78e-09 M
- IC50 (M); hIL36β; IL-8 production [2]: 1.41e-09 M
- IC50 (M); hIL36γ; IL-8 production [2]: 2.41e-10 M
- Maximum inhibition rate %; hIL36α; IL-8 production [2]: 93.5%
- Maximum inhibition rate %; hIL36αβγ; IL-8 production [2]: 84.6%
- Maximum inhibition rate %; hIL36β; IL-8 production [2]: 82.1%
- Maximum inhibition rate %; hIL36γ; IL-8 production [2]: 94.1%
B3: hz72C1-2.1 (antibody, human IgG4 S228P, kappa)
heavy: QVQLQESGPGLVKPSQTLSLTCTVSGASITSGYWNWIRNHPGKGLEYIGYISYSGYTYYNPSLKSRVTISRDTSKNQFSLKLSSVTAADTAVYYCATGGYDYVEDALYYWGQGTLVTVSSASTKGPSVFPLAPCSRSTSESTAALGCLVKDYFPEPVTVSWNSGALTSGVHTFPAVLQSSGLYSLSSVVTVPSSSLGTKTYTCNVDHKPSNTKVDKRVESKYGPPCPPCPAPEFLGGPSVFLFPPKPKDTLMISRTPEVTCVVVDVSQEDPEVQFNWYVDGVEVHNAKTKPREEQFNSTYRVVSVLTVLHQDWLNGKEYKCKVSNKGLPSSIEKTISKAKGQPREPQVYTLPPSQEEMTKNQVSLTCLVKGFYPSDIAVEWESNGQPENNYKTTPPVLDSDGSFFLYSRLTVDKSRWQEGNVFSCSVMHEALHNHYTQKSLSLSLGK
light: B1 light with F90Y
notes: Humanized, human IgG4 / kappa
